Test results as given in the RNAGym collection of RNA variant scans (doi:10.1073/pnas.2313332121).

B1: TPR t1 (parent)
chain: GACCAAUCUGCCCUCAGAGCUCGAGAACAUCUUCGGAUGCAGAGGAGGCAGGCUUCGGUGGCGCGAUAGCGCCAACGUCCUCAACCUCCAAUGCAUCCCACCACAUGAUGAUGCCUGAAGAGCCUUGGUUUUUUG

Variants of: B1
Assay: polymerase ribozyme fitness, log enrichment relative to wild type (log ratio); higher = more active; in vitro selection for triplet polymerase activity
Procedure, shortened: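 Libraries of mutants in each subunit of a heterodimeric triplet polymerase ribozyme were generated by PCR and transcribed. In triplicate, each went through one in vitro selection round: annealing with biotinylated primer, partner subunit and triplets; frozen incubation at −7 °C; gel excision of extended constructs; streptavidin-bead capture; RT-PCR. Fitness, taken from Illumina sequencing of input and output libraries, is the logarithm of a genotype's enrichment over wild-type enrichment, averaged across replicates with inverse-variance weights. The logarithm is base 2, and genotypes needed ≥10 input reads and ≥1 read per output to be kept.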

Q: For C56U C73G C115U, which “polymerase ribozyme fitness (log ratio)” value is on record?
A: The value was -3.6.

Q: Which “polymerase ribozyme fitness (log ratio)” value does the source give for G57A C89U U130C here?
A: The value was -0.888.

Q: With C56U G77U C101A as the variant, how does the “polymerase ribozyme fitness (log ratio)” value read?
A: Its value is -1.15.

Q: For G57A C73U G110A, which “polymerase ribozyme fitness (log ratio)” value is on record?
A: Its value is -2.06.

Q: Which “polymerase ribozyme fitness (log ratio)” value does the source give for C56U U125C here?
A: The value was -2.74.

Q: With C56U C62A A75U U81C C114A U125G as the variant, how does the “polymerase ribozyme fitness (log ratio)” value read?
A: Its value is -4.69.

Q: Which “polymerase ribozyme fitness (log ratio)” value does the source give for C56U G110U U116G G117U here?
A: The value was -6.29.

Q: Which “polymerase ribozyme fitness (log ratio)” value does the source give for C56U C64A C115U here?
A: Its value is -7.12.

Q: With C56U C72A G122A as the variant, how does the “polymerase ribozyme fitness (log ratio)” value read?
A: The value was -1.69.

Q: Which “polymerase ribozyme fitness (log ratio)” value does the source give for C56U U116G C123U here?
A: Its value is -1.77.

Q: With G57A G127U as the variant, how does the “polymerase ribozyme fitness (log ratio)” value read?
A: Its value is -1.83.

Q: Which “polymerase ribozyme fitness (log ratio)” value does the source give for C56U G71A C72G G77C C82G A111U here?
A: The value was -6.46.

Q: With C56U C101A C114A as the variant, how does the “polymerase ribozyme fitness (log ratio)” value read?
A: The value was -2.61.

Q: For C56U U106G U116C, which “polymerase ribozyme fitness (log ratio)” value is on record?
A: The value was -3.48.

Q: Which “polymerase ribozyme fitness (log ratio)” value does the source give for C56U A119U here?
A: Its value is -0.819.

Q: Which “polymerase ribozyme fitness (log ratio)” value does the source give for G57A G107A here?
A: Its value is -6.98.

Q: For C56U U67C, which “polymerase ribozyme fitness (log ratio)” value is on record?
A: Its value is -4.67.

Q: With C56U U67A as the variant, how does the “polymerase ribozyme fitness (log ratio)” value read?
A: The value was -5.79.

Q: Which “polymerase ribozyme fitness (log ratio)” value does the source give for C56U C124U here?
A: The value was 1.6.

Q: With G57A C124A as the variant, how does the “polymerase ribozyme fitness (log ratio)” value read?
A: The value was 0.954.

Q: With G57A A119G as the variant, how does the “polymerase ribozyme fitness (log ratio)” value read?
A: Its value is 0.755.

Q: Which “polymerase ribozyme fitness (log ratio)” value does the source give for C56U C72G C88A here?
A: Its value is -3.53.

Q: With C56U G57U as the variant, how does the “polymerase ribozyme fitness (log ratio)” value read?
A: The value was -0.86.

Q: With C56U G135U as the variant, how does the “polymerase ribozyme fitness (log ratio)” value read?
A: Its value is -1.18.

Q: Which “polymerase ribozyme fitness (log ratio)” value does the source give for G57A G58A A83U here?
A: The value was -0.302.

Q: With G57A G93U as the variant, how does the “polymerase ribozyme fitness (log ratio)” value read?
A: Its value is -1.69.

Q: With C56U C79U U92C U112A as the variant, how does the “polymerase ribozyme fitness (log ratio)” value read?
A: Its value is -0.412.

Q: Which “polymerase ribozyme fitness (log ratio)” value does the source give for G57A U130A here?
A: Its value is -1.13.

Q: Which “polymerase ribozyme fitness (log ratio)” value does the source give for G57A G71U here?
A: Its value is -0.925.

Q: For C56U U112C A118C, which “polymerase ribozyme fitness (log ratio)” value is on record?
A: Its value is 1.53.

Q: With C56U G127U as the variant, how does the “polymerase ribozyme fitness (log ratio)” value read?
A: Its value is -0.508.

Q: For G57A G58C G63A C89A, which “polymerase ribozyme fitness (log ratio)” value is on record?
A: Its value is -6.16.

Q: Which “polymerase ribozyme fitness (log ratio)” value does the source give for C56U U116C here?
A: The value was -0.494.

Q: Which “polymerase ribozyme fitness (log ratio)” value does the source give for C56U U96C C114G here?
A: The value was -3.1.

Q: With C56U A121G as the variant, how does the “polymerase ribozyme fitness (log ratio)” value read?
A: Its value is 1.94.

Q: Which “polymerase ribozyme fitness (log ratio)” value does the source give for C56U A121C here?
A: The value was 1.68.

Q: For C56U G77A C124U, which “polymerase ribozyme fitness (log ratio)” value is on record?
A: Its value is 1.2.

Q: For C56U C72G A83G C123U, which “polymerase ribozyme fitness (log ratio)” value is on record?
A: The value was -1.18.

Q: Which “polymerase ribozyme fitness (log ratio)” value does the source give for C56U G120U here?
A: Its value is 0.743.

Q: Which “polymerase ribozyme fitness (log ratio)” value does the source give for C56U G120C here?
A: The value was 0.793.

Q: With C56U G120A as the variant, how does the “polymerase ribozyme fitness (log ratio)” value read?
A: The value was 0.719.

Q: For C56U U87C C94U A95C G113A, which “polymerase ribozyme fitness (log ratio)” value is on record?
A: Its value is -2.65.

Q: Which “polymerase ribozyme fitness (log ratio)” value does the source give for G57A C80U here?
A: Its value is -1.38.

Q: For C56U C104G C115A, which “polymerase ribozyme fitness (log ratio)” value is on record?
A: Its value is -4.93.

Q: Which “polymerase ribozyme fitness (log ratio)” value does the source give for C56U C80A C97U here?
A: Its value is -2.71.

Q: With G57A A84U as the variant, how does the “polymerase ribozyme fitness (log ratio)” value read?
A: Its value is -0.813.

Q: With C56U C89G as the variant, how does the “polymerase ribozyme fitness (log ratio)” value read?
A: Its value is -1.27.

Q: Which “polymerase ribozyme fitness (log ratio)” value does the source give for C56U C86U here?
A: Its value is -0.265.

Q: For C56U G69C C114G, which “polymerase ribozyme fitness (log ratio)” value is on record?
A: The value was -6.88.

Q: For C56U C72U G120C G127A U134C, which “polymerase ribozyme fitness (log ratio)” value is on record?
A: Its value is -1.5.

Q: With G57A C73G G127C as the variant, how does the “polymerase ribozyme fitness (log ratio)” value read?
A: Its value is -2.37.

Q: Which “polymerase ribozyme fitness (log ratio)” value does the source give for C56U C62U C123A here?
A: The value was 0.0354.

Q: For C56U U112A U134A, which “polymerase ribozyme fitness (log ratio)” value is on record?
A: The value was 2.39.

Q: Which “polymerase ribozyme fitness (log ratio)” value does the source give for C56U C79U G113C here?
A: Its value is -2.44.

Q: With C56U C73G A90U as the variant, how does the “polymerase ribozyme fitness (log ratio)” value read?
A: The value was -3.53.

Q: With C56U G77A G117U G120A C124A as the variant, how does the “polymerase ribozyme fitness (log ratio)” value read?
A: The value was -1.34.

Q: Which “polymerase ribozyme fitness (log ratio)” value does the source give for C56U C85A here?
A: Its value is -1.96.

Q: With C56U C79A G113U as the variant, how does the “polymerase ribozyme fitness (log ratio)” value read?
A: Its value is -4.28.

Q: For C56U C62U, which “polymerase ribozyme fitness (log ratio)” value is on record?
A: Its value is -0.378.

Q: With C56U A91C as the variant, how does the “polymerase ribozyme fitness (log ratio)” value read?
A: The value was -1.17.

Q: Which “polymerase ribozyme fitness (log ratio)” value does the source give for C56U C70A here?
A: The value was -3.82.

Q: With C56U U106C G120A as the variant, how does the “polymerase ribozyme fitness (log ratio)” value read?
A: The value was 0.203.

Q: Which “polymerase ribozyme fitness (log ratio)” value does the source give for G57C A121C here?
A: Its value is 1.63.

Q: With C56U U81G U112G C124G as the variant, how does the “polymerase ribozyme fitness (log ratio)” value read?
A: Its value is -0.448.

Q: With C56U C70G C115A G122A as the variant, how does the “polymerase ribozyme fitness (log ratio)” value read?
A: The value was -4.59.

Q: With C56U G120C G122U as the variant, how does the “polymerase ribozyme fitness (log ratio)” value read?
A: The value was 1.43.

Q: With G57A C98G U112A as the variant, how does the “polymerase ribozyme fitness (log ratio)” value read?
A: Its value is -6.12.

Q: With C56U U59A as the variant, how does the “polymerase ribozyme fitness (log ratio)” value read?
A: The value was -0.76.

Q: Which “polymerase ribozyme fitness (log ratio)” value does the source give for C56U C70U U132C here?
A: The value was -0.908.

Q: Which “polymerase ribozyme fitness (log ratio)” value does the source give for G57A U59G here?
A: Its value is -0.399.

Q: Which “polymerase ribozyme fitness (log ratio)” value does the source give for C56U C94U G120C A121U G127U here?
A: The value was 0.202.

Q: With G57A C79U C102G G107U C115G C124U U129G as the variant, how does the “polymerase ribozyme fitness (log ratio)” value read?
A: Its value is -5.93.

Q: With C56U C73U A105U as the variant, how does the “polymerase ribozyme fitness (log ratio)” value read?
A: The value was -2.37.

Q: Which “polymerase ribozyme fitness (log ratio)” value does the source give for C56U U132C here?
A: Its value is -0.156.

Q: Which “polymerase ribozyme fitness (log ratio)” value does the source give for C56U C114A here?
A: The value was -1.27.

Q: For C56U C114G, which “polymerase ribozyme fitness (log ratio)” value is on record?
A: The value was -2.54.

Q: For C56U C101U, which “polymerase ribozyme fitness (log ratio)” value is on record?
A: The value was 0.177.

Q: Which “polymerase ribozyme fitness (log ratio)” value does the source give for C56U C101A here?
A: The value was -1.79.

Q: Which “polymerase ribozyme fitness (log ratio)” value does the source give for C56U C79A here?
A: Its value is -0.918.

Q: Which “polymerase ribozyme fitness (log ratio)” value does the source give for G57A C82A C102A here?
A: Its value is -4.09.

Q: Which “polymerase ribozyme fitness (log ratio)” value does the source give for C56U U116A G117C here?
A: The value was -1.64.

Q: With C56U U109A as the variant, how does the “polymerase ribozyme fitness (log ratio)” value read?
A: The value was -5.25.

Q: For C56U A100C U112C, which “polymerase ribozyme fitness (log ratio)” value is on record?
A: Its value is 0.715.

Q: With C56U A84G A95C G127U as the variant, how does the “polymerase ribozyme fitness (log ratio)” value read?
A: The value was -2.62.
